This data set in a line: label from the status in PepcDB records.
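Also: failed if final PepcDB status was selected cloned or expressed and not failed if soluble or beyond.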

In the case of “MAEANTPHIAIMPSPGMGHLIPFVELAKRLVQHDCFTVTMIISGETSPSKAQRSVLNSLPSSIASVFLPPADLSDVPSTARIETRAMLTMTRSNPALRELFGSLSTKKSLPAVLVVDMFGADAFDVAVDFHVSPYIFYASNANVLSFFLHLPKLDKTVSCEFRYLTEPLKIPGCVPITGKDFLDTVQDRNDDAYKLLLHNTKRYKEAKGILVNSFVDLESNAIKALQEPAPDKPTVYPIGPLVNTSSSNVNLEDKFGCLSWLDNQPFGSVLYISFGSGGTLTCEQFNELAIGLAESGKRFIWVIRSPSEIVSSSYFNPHSETDPFSFLPIGFLDRTKEKGLVVPSWAPQVQILAHPSTCGFLTHCGWNSTLESIVNGVPLIAWPLFAEQKMNTLLLVEDVGAALRIHAGEDGIVRREEVVRVVKALMEGEEGKAIGNKVKELKEGVVRVLGDDGLSSKSFGEVLLKWKTHQRDINQETSH”, the protein production entry was “failed”.

Consider “MAEATSALRKPVFTKVNELRPGTNGHSLNVKVVNTKMVMQRGGGRPMGPQSRQMRIAECLVGDETGIIIFTARNDQVDMMKEGSVVTLRNAKIDMYKGSMRLAVDRWGRVEVAEEPTDITVKDDNNLSLIEYELVSVET”, for which the protein production result is recorded as “failed”.

Regarding “MAEDQTVLAIDIGGSHVKIGLSTDGEERKVESGKTMTGPEMVAAVTAMAKDMTYDVIAMGYPGPVVHNKPLREPVNLGEGWVGYDYEGAFGRPVRIVNDALMQAIGSYNGGRMLFLGLGTGLGAAMIVENVAQPMEIAHLPYRKGKTYEHYVSEAYREKKGNAKWQKRVQDVVERLSAALEPDEVVIGGGNVERLENLPPKCRRGDNAMAFEGGFRLWKNADLIV”, the protein production result is given as “not failed”.

Regarding “MAEDYKLIDNEEKHRYEFQIDDKIAKIDYIKSNNGEIYLVHTEVPASLGGRGVGSQLAEKTLADIERQGLRLVPLCPFVAGYIHKHPEWKRIVMRGIHIK”, the protein production result was “failed”.

As to “MAEEHRCETPEGHRLCVNNCGFFGSSATMNLCSNCYGDLCLKQQQQASMKSTVESSLSPVIAPVLENYAAELEIPTTKKTEEKKPIQIPTEQPSPPQRPNRCTVCRKRVGLTGFMCRCGTTFCGSHRYPEVHGCTFDFKSAGREEIAKANPLVIAAKLQKI”, the protein production entry is “failed”.

For the sequence “MAEEQQNSSYSIGGNILPTPEEAATFQPQVVAEGGWDKCWEDGVTPWDQGRATPLILHLLDSSALPLGRTLVPGCGGGHDVVAMASPERFVVGLDISDKALNKANETYGSSPKAEYFSFVKEDVFTWRPNELFDLIFDYVFFCAIEPEMRPAWGKSMHELLKPDGELITLMYPMTDHEGGAPYKVALSSYEDVLVPVGFKAVSVEENPDSIPTRKGKEKLARWKKIN”, the protein production result is reported as “failed”.

Regarding “MAEEVRQELSALAAIFCGPNEWEMLSCSETDGAVFRIHTTAEGLVGEDVPLELAFHLPVGYPLCLPGISVTSEHLTRAQCVTAKEKLLGEARKLVSEPMVHELVLWIQQNLRLVLSQPETVSSHEKCTLPESATGDDGPWMTLLRLDHMRARTKYVKAVEKWASELRLTGRLMFMGKLILILLQGDRSNIKEYLILQKTSKVDVDSSGKKCKEKMISVLSETKVQTEHKRFLAFEVKEYSTLEELQKEFGAAGLGELFSECVLGLVK”, the protein production result is recorded as “failed”.

“MAEIYRETEVTVARALRPPVPPKRASWIGTFFGVAADPRTYGALFYMLLSLLTGVFYFTWVVTGASLSVGMLILIIGVPLLVLFFGSVRVLSLVEGRVVETLLGVRMPRRPQHPGLQGGWLQRIGAMFTDARTWSTMLYFLLMLPLGILYFTVFCTLLSLSLGLAASPIAVLFDNVAVLTWDGVDVTSAWLTLPLCVVGVLLLFVTLHLARAFGTLHGMFAKQLLVKGGEAAA”: the protein production entry is “failed”.

With “MAEKQYDFTHVPKRQGNSIKWGVLKEKELPMWIAEMDFKIAPEIMASMEEKLKVAAFGYESVPAEYYKAVADWEEIEHRARPKEDWCVFASGVVPAISAMVRQFTSPGDQILVQEPVYNMFYSVIEGNGRRVISSDLIYENSKYSVNWADLEEKLATPSVRMMVFCNPHNPIGYAWSEEEVKRIAELCAKHQVLLISDEIHGDLVLTDEDITPAFTVDWDAKNWVVSLISPSKTFNLAALHAACAIIPNPDLRARAEESFFLAGIGEPNLLAIPAAIAAYEEGHDWLRELKQVLRDNFAYAREFLAKEVPEVKVLDSNASYLAWVDISALGMNAEDFCKYLREKTGLIISAGNGYRGNGHEFVRINLACPKELVIDGMQRLKQGVLNLNN”, the protein production result is on record as “not failed”.

As for “MAEKRTLIAVIADEDTTTGLLLAGIGQITPETQEKNFFVYQEGKTTKEEITDKFNHFTEERDDIAILLINQHIAENIRARVDSFTNAFPAILEIPSKDHPYDPEKDSVLKRVRKLFGE”, the protein production entry is reported as “failed”.

For “MAELDIGQHCQVQHCRQRDFLPFVCDGCSGIFCLEHRSKDSHGCSEVNVVKERPKTDEHKSY”, the protein production entry was “not failed”.

In the case of “MAELNFKAIEEKWQKRWLEAKIFEPNIRDKPKEKKFYITVAFPYLSGHLHVGHARTYTIPDVIARFKRMQGYNVLFPMAWHITGSPIVGIAERIKNRDPKTIWIYRDVYKVPEEILWTFEDPINIVKYFMKAAKETFIRAGFSVDWSREFYTTSLFPPFSKFIEWQFWKLKEKGYIVKGAHRVRWDPVVGTPLGDHDLMEGEDVPILDYIIIKFELRENGEVIYLPAATLRPETVYGVTNMWVNPNATYVKAKVRRKDKEETWIVSKEAAYKLSFQDREIEVIEEFKGEKLIGKYVRNPVSGDEVIILPAEFVDPDNATGVVMSVPAHAPFDHVALEDLKRETEILEKYDIDPRIVENITYISLIKLEGYGDFPAVEEVNKLGIKSQKDKEKLEQATKTIYKAEYHKGIFKVPPYEGKPVQEVKEAIAKEMLEKGIAEIMYEFAEKNVISRFGNRAVIKIIHDQWFIDYGNPEWKEKARKALERMKILPETRRAQFEAIIDWLDKKACARKIGLGTPLPWDPEWVIESLSDSTIYMAYYTISRHINKLRQEGKLDPEKLTPEFFDYIFLEEFSEDKEKELEKKTGIPAEIIHEMKEEFEYWYPLDWRCSGKDLIPNHLTFFIFNHVAIFREEHWPKGIAVNGFGTLEGQKMSKSKGNVLNFIDAIEENGADVVRLYIMSLAEHDSDFDWRRKEVGKLRKQIERFYELISQFAEYEVKGNVELKDIDRWMLHRLNKAIKETTNALEEFRTRTAVQWAFYSIMNDLRWYLRRTEGRDDEAKRYVLRTLADVWVRLMAPFTPHICEELWEKLGGEGFVSLAKWPEPVEEWWNETIEAEEEFIRSVMEDIKEIIEVAKIENAKRAYIYTAEDWKWKVAEVVSEKRDFKSSMEELMKDSEIRKHGKEVAKIVQKLIKERTFDVKRINEEKALREAKEFMEKELGIEIIINPTEDKGGKKKQAMPLKPAIFIE”, the protein production entry is given as “not failed”.

As to “MAEQHGDSPVPVELSVVGGFLIAVIVGMLFPADAMTRWMFHPAVVAGCCWAGQLWYVGRKLSVPPAAGNPWRYIFGMANTVTLLRGGLYAVVAGFLVVPATTDLAWVPAACYGVGVVLDKLDGTVARTVGEQTQLGTRLDMAFDTFGFVVAPLVAVFWGQLPVLYLSLSAARYAYVGGIRWRRYRDRPVFERPDSNLGKYLAGVQMVFITAALVPVVPTELVFRLTPVVLAPSLAVFLRDFLVASGRLPREWFDRQR”, the protein production entry is “failed”.

As for “MAEQMRRVARLFGDWPETIIWTCLEGTMGDIYVDDSQSPQSALALYGRQSFFGFLAGQPHRDLLKICEGKNIILVPQNQAWSDLIEEVYGDGVRFFTRYATKKDTEFDLGHLQKLVDDLPESFDMKLIDRNLYETCLVEEWSRDLVGNYIDVEQFLDLGLGCVILHKGQVVSGASSYASYSAGIEIEVDTREDYRGLGLAKACAAQLILACLDRGLYPSWDAHTLTSLKLAEKLGYELDKAYQAYEWR”, the protein production entry is on record as “not failed”.

For the sequence “MAERRVALVMADNDYRLVRPLANPIHDGEAMEAALKKLGFEVILETNRDLRRMRRALDDFREDAKGADVALVYFSGHGVEISGDNRLLPVDADASSVDQLDKTSLPLEEVRDAVAATAKVGLIVLDACRSDPFSASSGDGRGATSLTKDVADKVKPGLGRVGRAENILFAFSAAPGETAADGTGENSPFTTALTKYLATDGLEIRSVLTLVQQEVYDLSRGKQLPYVESGLPKLFFAAAAKEQLPERERLLLAMADVTPEMRGEVEQIASDADMPLAPLYGALISSDASHLSADSLNARLREAADAFVKVRSEMKTLASDDPQVAELRRQAEEQLSLGAFDGARALLAKAADIDNVSRQALKVNFASRTLSEAATRFLSGGAARADLDYTTAIGDFETVLSLYGEAGQTSLSLEQADRQSRTLEELGILYTTVGNVEAAGRAFTALLTNLEQRSRQETDPSVKRDLAISHIKLANIKMVQGDLPTSLEHYEAARDMLQDLTASVPDEKSWLGDLAMANDKIGNVLATQGDVGAAAKAYQQSLSIKRKLVDAQPNSASLLRDLTITYDEIGDLARTAGQLDGAQTAFEESLRIRLVLAENKPDPERQRAVSVSHERIGDVLRERGDAAGALVAYSKSQAIAEELVRHDPNDTDLKRDLSISYAKIGNALNDQENWPAALASYQQALAVARELAADDPGNTDWQRDLSVCLEKVAGVLDAQGDIRSALQNYQDSLAIVDRLTKLDPGNSDWQRDLSITLSEIGMLETRQRHFEGSRKAFEASLGIRQKLAQSDPNNAIWQFDLVQAYINYAYVAKDPKAVLTKALNLTLDLDRTGRLAPRDKPTIKYLRGLLAKLNAGKK”, the protein production result is given as “failed”.

As for “MAESTDQTEQLRELAEIGLEGYAPYLMNRIMGRYNANLRKEMTALGLSTAKMRALAILSAKDGLPIGTLGIFAVVEQSTLSRALDGLQADGLVRREVDSDDQRSSRVYLTPAGRAVYDRLWPHMRASHDRMFQGITPQERQAFLATLNKMLANIRVHEI”, the protein production entry was “not failed”.

On to “MAESTRIGQESRVTLHFALKLEDGNVVDSTFDKQPASFKVGDGNLLPGFEQALFGLKAGDKRTLSILPEQGFGQPNPQNVQIMPRDQFQDMELAEGLLVIFNDAAKTELPGVVKAFDEQQVTVDFNHPLAGKTLAFEVEIIDVQPA”, for which the protein production result was “failed”.

Consider “MAETIISLLSPTLDIKSPYYFNPDYLHQFNMHTNTAIDKLSEAKDNYAIWKLRFFDLLQFTNKTGFIDGTLPKPDPSSPYYEPWKQCNAIVLHWLSNTVTDTLQNHVLQAETVHKAWEDLRRIFVPCIDFKIYELRQRLATLRQGGDSVAEYFGKLSKAWLELKAYDPVQECKCGGCDCESEKRATEAREKEQRYAFLMGLNKEFDYVKMKVMHKKIPPSVYQAYEMVVYSEAMMKWKMGGRI”, for which the protein production entry was “failed”.

For “MAEVKTRDEHDEEPPRFDAQAATIAPETILLHPGPAAIVALGGGEALCNALGEPLRPLFSPEAADSLLPEIRSALETGVPQQKVVDVGRDGLPAQFDLIILPTAEPGRVVVIGRDVTLERTLRKALTDSRQRYKDFVDLSIDFTWETGPDGRFVFVSPDGALGYAARDLVGALPWTLMDITDAQSGATVFNSPVRVKDVDIWVRRRDGTLACLKTSSMPVFDASGEWSGGRGVCHDITEQHDRDKALARALNRQRVVANVERTFRDEIDPSNMLNVAAEALARSVGGDGCLIYRAALDDGPDRPFLPRGRFGEGGDEKVVLTLEALGEGAHAQTTPDGKWTVLVAASRYRRQINGAVVLWRRIERGAWSEDDHLLIVDVANQIGSANEQIGQHDRIISMSRTDGLTGLLNRRAFFDDMDRRLKGPPGLVERRAGEEAARRSERPARSALLYIDLDNFKWVNDAHGHLRGDEALMTVRKILTDHTRATDIVARLGGDEFAIWLEGADAEAASAKAAEILAEDALLRPFDGSPDRPLSLSIGLAIHDPASGEGVEDLTARADMAMYAAKHGGKGRFSLSLPPPHTPT”, the protein production entry is recorded as “failed”.

As for “MAFDAARYVHRYYASLAPAPGNEYPRLRAWEYLWEYVWDPSRSWDDLTAPEQLDTTALHLGFYLANWGMFRGSSGLLQNSNLDLMKALARQLFSGAGPELFELSLVDFAGNGARLAHNRKLLETVLGSMDALSSRVSWTDTLKSKILLGVWGEFPALDRHYVAACRALYPRRGLTSVNGGTLTALHRLIGEERLSFPRLETARKGLLYPTGRLADMAFFQYGLENALEHHHHHH”, the protein production entry is recorded as “not failed”.
